B1: Pa-ExoY (20-378) K347A (enzyme)
chain: LLRPADMQARALQDLFDAQGVGVPVEHALRMQAVARQTNTVFGIRPVERIVTTLIEEGFPTKGFSVKGKSSNWGPQAGFICVDQHLSKREDRDTAEIRKLNLAVAKGMDGGAYTQTDLRISRQRLAELVRNFGLVADGVGPVRLLTAQGPSGKRYEFEARQEADGLYRISRLGRSEAVQVLASPACGLAMTADYDLFLVAPSIEAHGSGGLDARRNTAVRYTPLGAKDPLSEDGFYGREDMARGNITPRTRQLVDALNDCLGRGEHREMFHHSDDAGNPGSHMGDNFPATFYLPRAMEHRVGEESVRFDEVCVVADRKSFSLLVECIAGNGYHFTAHPDWNVPLRPGFQEALDFFQRKV
B2: Pa-ExoY (20-378) H352A (enzyme)
chain: LLRPADMQARALQDLFDAQGVGVPVEHALRMQAVARQTNTVFGIRPVERIVTTLIEEGFPTKGFSVKGKSSNWGPQAGFICVDQHLSKREDRDTAEIRKLNLAVAKGMDGGAYTQTDLRISRQRLAELVRNFGLVADGVGPVRLLTAQGPSGKRYEFEARQEADGLYRISRLGRSEAVQVLASPACGLAMTADYDLFLVAPSIEAHGSGGLDARRNTAVRYTPLGAKDPLSEDGFYGREDMARGNITPRTRQLVDALNDCLGRGEHREMFHHSDDAGNPGSHMGDNFPATFYLPRAMEHRVGEESVRFDEVCVVADRKSFSLLVECIKGNGYAFTAHPDWNVPLRPGFQEALDFFQRKV
B3: Pa-ExoY (20-378) 3 Mut (F367A-L371A-F374A) (enzyme)
chain: LLRPADMQARALQDLFDAQGVGVPVEHALRMQAVARQTNTVFGIRPVERIVTTLIEEGFPTKGFSVKGKSSNWGPQAGFICVDQHLSKREDRDTAEIRKLNLAVAKGMDGGAYTQTDLRISRQRLAELVRNFGLVADGVGPVRLLTAQGPSGKRYEFEARQEADGLYRISRLGRSEAVQVLASPACGLAMTADYDLFLVAPSIEAHGSGGLDARRNTAVRYTPLGAKDPLSEDGFYGREDMARGNITPRTRQLVDALNDCLGRGEHREMFHHSDDAGNPGSHMGDNFPATFYLPRAMEHRVGEESVRFDEVCVVADRKSFSLLVECIKGNGYHFTAHPDWNVPLRPGAQEAADFAQRKV

Target: F-actin (filamentous rabbit skeletal muscle α-actin) (rabbit, UniProt P68135 1-377)
Assay: cell-based or functional assay

Binder	F-actin-stimulated guanylate cyclase (cGMP synthesis) activity, 3 μM F-actin, against wild-type Pa-ExoY
B1	~15 fold decrease
B2	~8 fold decrease
B3	~12000 fold reduction

Source: article PMC10553838 (PLOS Pathogens, 2023)
